Bridge positions count the residues as written; N and C are the ends. Ends that are not written are not given here.
Tests used:
[1] = molecular target: VEGF (form and enantiomer not stated at paragraph 530); assay: Octet-SPR, preliminary estimate, reference RFX001
[2] = molecular target: VEGF (form and enantiomer not stated at paragraph 530); assay: standard SPR, preliminary estimate, reference RFX001

VEGF (form and enantiomer not stated at paragraph 530), sequence (P15692 whole entry): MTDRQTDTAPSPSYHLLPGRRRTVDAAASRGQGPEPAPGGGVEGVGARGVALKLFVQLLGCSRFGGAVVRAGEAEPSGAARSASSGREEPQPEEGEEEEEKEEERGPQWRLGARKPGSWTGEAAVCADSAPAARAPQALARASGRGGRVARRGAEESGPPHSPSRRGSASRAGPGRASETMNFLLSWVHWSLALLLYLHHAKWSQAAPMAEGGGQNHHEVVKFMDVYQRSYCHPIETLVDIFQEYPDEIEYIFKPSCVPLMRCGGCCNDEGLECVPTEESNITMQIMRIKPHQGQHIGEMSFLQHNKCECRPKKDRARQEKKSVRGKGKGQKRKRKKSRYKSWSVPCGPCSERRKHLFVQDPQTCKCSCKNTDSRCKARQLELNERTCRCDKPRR

B1: RFX002 (enantiomer and preparation not stated at paragraph 530) (designed binder)
chain: TYKMILNGKTLKSECTTEAVDLFDAFDVLFVCAASNFSFIDDWTYDDATKTFTVTE
modifications: disulfide 15-32 (inferred); also: enantiomer (L- or D-form) not given here
Q: For B1, which “fold increase of binding affinity against RFX001” value [1] is on record?
A: ~5 fold

Q: And the “fold increase of binding affinity against RFX001” value [2]?
A: ~2 fold
